The record followed here is patent US20240262884A1 (University of Pennsylvania, published 2024).

The target of experiment [1] is T1, human GFRα3 (R&D Systems, Fc-fusion protein) (human, UniProt O60609 32-382, limits assumed).
T1 construct: not shown: Fc part of the bought fusion protein
T1 sequence (looked up): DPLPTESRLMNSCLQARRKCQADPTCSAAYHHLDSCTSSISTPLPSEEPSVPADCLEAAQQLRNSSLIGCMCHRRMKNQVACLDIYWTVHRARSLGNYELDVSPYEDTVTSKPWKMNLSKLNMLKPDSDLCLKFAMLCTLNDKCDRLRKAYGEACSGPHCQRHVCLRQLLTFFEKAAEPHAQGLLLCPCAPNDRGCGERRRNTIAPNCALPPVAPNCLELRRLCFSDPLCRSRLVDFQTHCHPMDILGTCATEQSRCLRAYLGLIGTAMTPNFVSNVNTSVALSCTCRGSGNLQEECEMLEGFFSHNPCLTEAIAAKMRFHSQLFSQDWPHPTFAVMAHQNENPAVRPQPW
The experiment in a line: ELISA with soluble Fab, HRP-anti human Fab detection (FIG. 3). (In general: In an ELISA, binding on a coated surface is turned into a signal by an enzyme label.)

Experiment [2] deals with T2, human GFRα2 (R&D Systems, Fc-fusion protein) (human, UniProt O00451 22-441, limits assumed).
T2 construct: not shown: Fc part of the bought fusion protein
T2 sequence (looked up): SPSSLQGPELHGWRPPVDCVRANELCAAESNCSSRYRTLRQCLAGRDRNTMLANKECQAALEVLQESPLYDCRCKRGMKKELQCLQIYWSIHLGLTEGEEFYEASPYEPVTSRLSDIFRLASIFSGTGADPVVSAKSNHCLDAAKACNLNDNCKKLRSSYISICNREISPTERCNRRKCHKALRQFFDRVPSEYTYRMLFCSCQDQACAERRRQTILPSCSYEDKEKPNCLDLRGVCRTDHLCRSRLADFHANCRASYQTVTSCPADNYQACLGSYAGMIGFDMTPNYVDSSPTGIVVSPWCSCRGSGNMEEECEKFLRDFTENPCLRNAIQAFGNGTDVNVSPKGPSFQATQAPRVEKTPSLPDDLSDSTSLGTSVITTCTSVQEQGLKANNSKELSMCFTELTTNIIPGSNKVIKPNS
The experiment is described as above.

The target in experiment [3] is T3, human GFRα1 (R&D Systems, Fc-fusion protein) (human, UniProt P56159 25-429, limits assumed).
T3 construct: not shown: Fc part of the bought fusion protein
T3 sequence (looked up): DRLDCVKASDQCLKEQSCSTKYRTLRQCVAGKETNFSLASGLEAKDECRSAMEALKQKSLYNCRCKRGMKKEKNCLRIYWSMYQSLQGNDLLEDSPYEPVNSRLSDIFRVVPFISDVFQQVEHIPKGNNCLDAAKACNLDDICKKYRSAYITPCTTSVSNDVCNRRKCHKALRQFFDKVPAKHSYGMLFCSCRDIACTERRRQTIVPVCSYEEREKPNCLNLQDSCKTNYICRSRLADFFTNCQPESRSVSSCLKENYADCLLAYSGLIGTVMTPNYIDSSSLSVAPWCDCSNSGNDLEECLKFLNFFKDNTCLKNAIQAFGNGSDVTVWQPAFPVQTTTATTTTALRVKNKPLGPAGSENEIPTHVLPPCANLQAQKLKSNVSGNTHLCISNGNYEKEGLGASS
The description is as above.

Experiment [4] has as its target T4, GFRα4 isoform a human Fc bivalent fusion protein (Asn24-Ser245, Factor Xa site, human IgG1 Fc fragment, … (human)).
T4 construct: also called GFRα4a; GFRalpha4 isoform a
T4 chain: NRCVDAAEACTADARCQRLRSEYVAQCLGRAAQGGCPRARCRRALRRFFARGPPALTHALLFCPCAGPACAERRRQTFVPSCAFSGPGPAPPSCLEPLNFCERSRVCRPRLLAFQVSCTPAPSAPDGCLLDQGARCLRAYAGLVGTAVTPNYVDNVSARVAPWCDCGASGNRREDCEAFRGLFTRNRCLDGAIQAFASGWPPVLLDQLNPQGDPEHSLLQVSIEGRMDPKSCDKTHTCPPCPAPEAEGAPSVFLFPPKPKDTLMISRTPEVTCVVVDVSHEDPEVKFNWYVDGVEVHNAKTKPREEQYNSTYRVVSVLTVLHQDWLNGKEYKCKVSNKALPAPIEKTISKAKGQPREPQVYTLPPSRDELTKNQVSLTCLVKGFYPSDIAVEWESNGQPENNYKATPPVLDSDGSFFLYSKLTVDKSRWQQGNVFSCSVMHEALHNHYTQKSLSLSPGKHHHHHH
The experiment in a line: ELISA, soluble recombinant human/rabbit chimeric Fab, HRP-anti human Fab detection (FIG. 3).

In experiment [5] the target is T5, GFRα4 isoform b human Fc bivalent fusion protein (Asn24-Val274, TEV site and linker, human IgG1 Fc fragment); … (human).
T5 construct: also called GFRα4b; GFRalpha4 isoform b
The experiment is described as above.

B1: P4-10 recombinant human/rabbit chimeric Fab (Fab, V domains shown)
VH: QSVKESEGGLFKPTDTLTLTCTVSGFSLSRHALTWVRQAPGNGLEWIGAIDNAGTTYYASWAKSRSTITRNTDLHTVTLKMTSLTASDTATYFCARVFYDINSGYYLDGMDLWGPGTLVTVSS
VL: QFVLTQSPSVSAALGASAKLTCTLSSAHKTYTIDWYQQQQGEAPRYLMQVKSDGSYTKGTGVPDRFSGSSSGADRYLIIPSVQADDEAGYVCGADDNGGYVFGGGTQLTVT
notes: Both formats are written under this one molecule; also called Fab P4-10; P4-10 phage antibody
For the molecule B1, the binding result in experiment [1] is given as “no binding”; in experiment [2], “no binding”; in experiment [3] it was “no binding”; in experiment [4] it was “binds”; in experiment [5], “binds”.

B2: P4-6 recombinant human/rabbit chimeric Fab (Fab, V domains shown)
VH: EQLKESGGGLFKPTDTLTLTCTVSGFSLSYYGVNWVRQAPGNGLEWIGTIGGSGDTYYASWAKSRSTIIRNTNENTVTLKMTSLTAADTATYFCVRYANIGYEYFNVWGPGTLVTVSS
VL: QFVLTQSPSASAALGASAKLTCTLSSAHKTYTIDWYQQQKGKAPRYLIQVKSDGTYTKATGVPDRFSGSSSGADRYLIIPSVQADDEADYYCGTDYTGGYVFGGGTQLTVT
notes: Both formats are written under this one molecule; also called Fab P4-6; P4-6 phage antibody
Regarding B2, the binding result is “no binding” in experiment [1]; “no binding” in experiment [2]; “no binding” in experiment [3]; “binds” in experiment [4]; “binds” in experiment [5].
